Columns and labels:
Test in all cases: holdup assay
Parameters in all cases: key: below the threshold = too weak to quantify, mostly under pKd 3.1 to 4
[1] = target: T1, APBA3_1, O96018
T1 sequence (O96018 389-490, limits assumed, looked up): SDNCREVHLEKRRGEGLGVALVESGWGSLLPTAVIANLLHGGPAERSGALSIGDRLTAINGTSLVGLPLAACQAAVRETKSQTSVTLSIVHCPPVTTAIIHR

[2] = target: T2, DLG3_2, Q92796
T2 sequence (Q92796 221-321, limits assumed, looked up): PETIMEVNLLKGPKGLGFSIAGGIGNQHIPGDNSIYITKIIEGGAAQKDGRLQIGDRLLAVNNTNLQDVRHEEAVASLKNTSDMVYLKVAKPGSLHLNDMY

[3] = target: T3, FRMPD1, Q5SYB0
T3 sequence (Q5SYB0 52-145, limits assumed, looked up): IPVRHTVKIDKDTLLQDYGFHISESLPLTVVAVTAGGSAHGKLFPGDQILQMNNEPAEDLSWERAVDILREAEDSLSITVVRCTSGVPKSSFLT

[4] = target: FRMPD2_3, Q68DX3
FRMPD2_3, Q68DX3, sequence (Q68DX3 1073-1166): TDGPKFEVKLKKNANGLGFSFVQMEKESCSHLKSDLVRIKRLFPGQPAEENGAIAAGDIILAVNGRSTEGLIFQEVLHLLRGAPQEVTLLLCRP

[5] = target: FRMPD4, Q14CM0
FRMPD4, Q14CM0, sequence (Q14CM0 67-160): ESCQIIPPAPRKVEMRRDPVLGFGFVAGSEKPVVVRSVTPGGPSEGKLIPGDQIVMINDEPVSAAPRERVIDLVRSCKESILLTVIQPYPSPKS

[6] = target: GORASP1, Q9BQQ3
GORASP1, Q9BQQ3, sequence (Q9BQQ3 1-208): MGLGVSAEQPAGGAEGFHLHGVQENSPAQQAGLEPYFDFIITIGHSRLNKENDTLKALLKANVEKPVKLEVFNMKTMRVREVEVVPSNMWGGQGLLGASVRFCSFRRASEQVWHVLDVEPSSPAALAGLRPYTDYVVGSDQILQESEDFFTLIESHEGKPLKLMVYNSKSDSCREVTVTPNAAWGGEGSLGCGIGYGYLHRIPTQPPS

[7] = target: T4, GRIP1_4, Q9Y3R0
T4 sequence (Q9Y3R0 467-571, limits assumed, looked up): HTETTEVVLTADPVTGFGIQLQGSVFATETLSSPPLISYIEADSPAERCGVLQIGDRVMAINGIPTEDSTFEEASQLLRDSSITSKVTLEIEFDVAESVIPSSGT

[8] = target: T5, GRIP1_5, Q9Y3R0
T5 sequence (Q9Y3R0 568-668, limits assumed, looked up): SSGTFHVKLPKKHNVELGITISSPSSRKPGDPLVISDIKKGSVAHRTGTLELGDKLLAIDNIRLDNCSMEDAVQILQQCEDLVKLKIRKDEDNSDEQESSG

[9] = target: GRIP2_7, Q9C0E4
GRIP2_7, Q9C0E4, sequence (Q9C0E4 934-1023): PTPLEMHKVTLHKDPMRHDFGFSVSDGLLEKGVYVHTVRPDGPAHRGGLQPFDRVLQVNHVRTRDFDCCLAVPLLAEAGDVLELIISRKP

[10] = target: HTRA1, Q92743
HTRA1, Q92743, sequence (Q92743 360-477): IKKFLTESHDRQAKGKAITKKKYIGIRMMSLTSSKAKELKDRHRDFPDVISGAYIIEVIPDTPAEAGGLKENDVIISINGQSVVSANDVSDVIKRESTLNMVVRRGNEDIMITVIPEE

[11] = target: HTRA2, O43464
HTRA2, O43464, sequence (O43464 355-458): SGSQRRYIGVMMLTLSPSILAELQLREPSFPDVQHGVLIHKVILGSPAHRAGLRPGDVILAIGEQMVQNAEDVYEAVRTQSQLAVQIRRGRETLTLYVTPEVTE

[12] = target: T6, HTRA3, P83110
T6 sequence (P83110 354-453, limits assumed, looked up): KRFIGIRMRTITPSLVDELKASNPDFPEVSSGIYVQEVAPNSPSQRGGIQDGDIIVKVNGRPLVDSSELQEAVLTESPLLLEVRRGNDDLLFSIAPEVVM

[13] = target: IL16_3, Q14005
IL16_3, Q14005, sequence (Q14005 1107-1207): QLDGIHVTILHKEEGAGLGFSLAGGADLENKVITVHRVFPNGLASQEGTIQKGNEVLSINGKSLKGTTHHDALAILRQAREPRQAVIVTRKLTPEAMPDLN

[14] = target: Inadl_3, Q8NI35
Inadl_3, Q8NI35, sequence (Q8NI35 359-469): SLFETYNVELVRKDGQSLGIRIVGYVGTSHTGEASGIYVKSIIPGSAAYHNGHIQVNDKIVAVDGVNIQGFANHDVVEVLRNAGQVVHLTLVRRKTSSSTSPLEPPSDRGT

[15] = target: Inadl_5, Q8NI35
Inadl_5, Q8NI35, sequence (Q8NI35 673-780): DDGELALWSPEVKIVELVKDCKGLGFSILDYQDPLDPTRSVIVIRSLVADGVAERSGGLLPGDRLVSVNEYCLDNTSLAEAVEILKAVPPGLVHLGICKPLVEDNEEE

[16] = target: LIMK2, P53671
LIMK2, P53671, sequence (P53671 143-248): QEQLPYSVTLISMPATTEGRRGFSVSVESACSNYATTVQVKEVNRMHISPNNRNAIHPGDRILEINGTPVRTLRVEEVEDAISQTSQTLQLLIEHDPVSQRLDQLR

[17] = target: LNX1_2, Q8TBB1
LNX1_2, Q8TBB1, sequence (Q8TBB1 371-470): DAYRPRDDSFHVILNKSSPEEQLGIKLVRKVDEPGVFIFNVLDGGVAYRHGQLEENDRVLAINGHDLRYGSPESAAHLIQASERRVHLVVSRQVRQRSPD

[18] = target: MAGI2_2, Q86UL8
MAGI2_2, Q86UL8, sequence (Q86UL8 410-522): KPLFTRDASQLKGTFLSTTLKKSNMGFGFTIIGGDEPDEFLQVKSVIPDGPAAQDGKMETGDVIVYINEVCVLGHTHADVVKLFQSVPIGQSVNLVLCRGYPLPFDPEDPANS

[19] = target: MAGI2_6, Q86UL8
MAGI2_6, Q86UL8, sequence (Q86UL8 1141-1229): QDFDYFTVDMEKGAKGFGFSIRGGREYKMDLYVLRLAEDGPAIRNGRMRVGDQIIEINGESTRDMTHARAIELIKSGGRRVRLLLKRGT

[20] = target: NHERF4_4, Q86UT5
NHERF4_4, Q86UT5, sequence (Q86UT5 464-550): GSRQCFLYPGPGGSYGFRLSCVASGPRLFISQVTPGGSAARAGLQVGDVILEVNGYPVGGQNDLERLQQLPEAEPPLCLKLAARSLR

[21] = target: T7, PDZD2_2, O15018
T7 sequence (O15018 329-429, limits assumed, looked up): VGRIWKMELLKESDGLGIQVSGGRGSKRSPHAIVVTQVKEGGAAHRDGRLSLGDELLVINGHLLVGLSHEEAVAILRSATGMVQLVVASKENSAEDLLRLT

[22] = target: T8, PDZD7_3, Q9H5P4
T8 sequence (Q9H5P4 857-944, limits assumed, looked up): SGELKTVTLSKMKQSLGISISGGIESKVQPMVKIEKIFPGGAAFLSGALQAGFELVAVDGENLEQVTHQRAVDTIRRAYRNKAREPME

[23] = target: T9, SIPA1L2, Q9P2F8
T9 sequence (Q9P2F8 945-1036, limits assumed, looked up): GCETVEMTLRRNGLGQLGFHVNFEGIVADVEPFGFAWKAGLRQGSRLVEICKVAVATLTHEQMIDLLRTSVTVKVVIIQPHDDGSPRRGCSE

[24] = target: T10, SNTG2, Q9NY99
T10 sequence (Q9NY99 68-166, limits assumed, looked up): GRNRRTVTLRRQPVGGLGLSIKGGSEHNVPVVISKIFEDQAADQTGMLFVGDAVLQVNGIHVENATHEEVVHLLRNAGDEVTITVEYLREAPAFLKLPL

[25] = target: TJP1_3, Q07157
TJP1_3, Q07157, sequence (Q07157 416-512): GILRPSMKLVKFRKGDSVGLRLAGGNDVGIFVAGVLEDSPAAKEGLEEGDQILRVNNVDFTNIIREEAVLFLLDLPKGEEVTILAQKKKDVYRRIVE

[26] = target: T11, TJP3_3, O95049
T11 sequence (O95049 375-456, limits assumed, looked up): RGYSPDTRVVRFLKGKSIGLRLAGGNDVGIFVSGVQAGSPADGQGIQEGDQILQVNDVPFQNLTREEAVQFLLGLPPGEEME

[27] = plain residues with an end cap or a label only (N-terminal biotin on a linker: ttds)
[28] = plain residues with an end cap or a label only (N-terminal biotin on a linker: ahx)
[29] = plain residues with an end cap or a label only (N-terminal biotin on a linker: ado-ado)

B1: CTNNB1, P35222 (peptide)
chain: NQLAWFDTDL
pKd [1, 27]: below the threshold | pKd [2, 27]: below the threshold | pKd [3, 27]: below the threshold | pKd [4, 27]: below the threshold | pKd [5, 27]: 4.28 | pKd [6, 27]: below the threshold | pKd [7, 27]: below the threshold | pKd [8, 27]: below the threshold | pKd [9, 27]: below the threshold | pKd [10, 27]: below the threshold | pKd [11, 27]: below the threshold | pKd [12, 27]: below the threshold | pKd [13, 27]: below the threshold | pKd [14, 27]: 3.7 | pKd [15, 27]: below the threshold | pKd [16, 27]: below the threshold | pKd [17, 27]: below the threshold | pKd [18, 27]: below the threshold | pKd [19, 27]: 5.15 | pKd [20, 27]: 4.04 | pKd [21, 27]: below the threshold | pKd [22, 27]: below the threshold | pKd [23, 27]: below the threshold | pKd [24, 27]: below the threshold | pKd [25, 27]: below the threshold | pKd [26, 27]: below the threshold

B2: LNX1, Q8TBB1 (peptide)
chain: TIVSWPGTFL
pKd [1, 28]: below the threshold | pKd [2, 28]: below the threshold | pKd [3, 28]: below the threshold | pKd [4, 28]: below the threshold | pKd [5, 28]: 3.73 | pKd [6, 28]: below the threshold | pKd [7, 28]: below the threshold | pKd [8, 28]: below the threshold | pKd [9, 28]: below the threshold | pKd [10, 28]: 4.61 | pKd [11, 28]: 3.94 | pKd [12, 28]: 3.62 | pKd [13, 28]: below the threshold | pKd [14, 28]: 3.62 | pKd [15, 28]: below the threshold | pKd [16, 28]: below the threshold | pKd [17, 28]: below the threshold | pKd [18, 28]: below the threshold | pKd [19, 28]: 3.67 | pKd [20, 28]: below the threshold | pKd [21, 28]: 4.03 | pKd [22, 28]: 4.13 | pKd [23, 28]: below the threshold | pKd [24, 28]: below the threshold | pKd [25, 28]: below the threshold | pKd [26, 28]: below the threshold

B3: SHROOM3, Q8TF72 (peptide)
chain: GIFPTLTSPL
pKd [1, 28]: below the threshold | pKd [2, 28]: below the threshold | pKd [3, 28]: below the threshold | pKd [4, 28]: below the threshold | pKd [5, 28]: below the threshold | pKd [6, 28]: below the threshold | pKd [7, 28]: below the threshold | pKd [8, 28]: below the threshold | pKd [9, 28]: below the threshold | pKd [10, 28]: below the threshold | pKd [11, 28]: below the threshold | pKd [12, 28]: below the threshold | pKd [13, 28]: below the threshold | pKd [14, 28]: below the threshold | pKd [15, 28]: below the threshold | pKd [16, 28]: below the threshold | pKd [17, 28]: below the threshold | pKd [18, 28]: below the threshold | pKd [19, 28]: below the threshold | pKd [20, 28]: below the threshold | pKd [21, 28]: 3.48 | pKd [22, 28]: 3.51 | pKd [23, 28]: below the threshold | pKd [24, 28]: below the threshold | pKd [25, 28]: below the threshold | pKd [26, 28]: below the threshold

B4: ACOT6, Q3I5F7 (peptide)
chain: GKKSVKHSKI
pKd [1, 29]: below the threshold | pKd [2, 29]: below the threshold | pKd [3, 29]: below the threshold | pKd [4, 29]: below the threshold | pKd [5, 29]: below the threshold | pKd [6, 29]: below the threshold | pKd [7, 29]: below the threshold | pKd [8, 29]: below the threshold | pKd [9, 29]: below the threshold | pKd [10, 29]: below the threshold | pKd [11, 29]: below the threshold | pKd [12, 29]: below the threshold | pKd [13, 29]: below the threshold | pKd [14, 29]: below the threshold | pKd [15, 29]: below the threshold | pKd [16, 29]: below the threshold | pKd [17, 29]: below the threshold | pKd [18, 29]: 3.96 | pKd [19, 29]: below the threshold | pKd [20, 29]: 3.76 | pKd [21, 29]: 4.03 | pKd [22, 29]: 4.58 | pKd [23, 29]: below the threshold | pKd [24, 29]: 3.52 | pKd [25, 29]: below the threshold | pKd [26, 29]: below the threshold
